Test results as given in patent US20130089544A1 (AstraZeneca / MedImmune, published 2013).
Numbering of substitutions follows the chain as printed. One block for each binder: values may come before it.

What was measured:
[1] = target: T1, human ErbB2, full length, on cells (human, UniProt P04626 23-1255); test: cell-based or functional assay
[2] = target: T1, human ErbB2, full length, on cells; test: cell-based or functional assay; remark: listed apart in the source
[3] = target: T1, human ErbB2, full length, on cells; test: cell-based or functional assay; remark: listed apart in the source
[4] = target: T1, human ErbB2, full length, on cells; test: cell-based or functional assay; remark: listed apart in the source
[5] = target: T1, human ErbB2, full length, on cells; test: cell-based or functional assay; remark: listed apart in the source
[6] = target: T1, human ErbB2, full length, on cells; test: cell-based or functional assay; remark: listed apart in the source
[7] = target: T2, human ErbB2 ECD-myc/His fusion protein (human, UniProt P04626 23-652); test: limited antigen ELISA, 31 ng/ml ErbB2 ECD-myc/His coated, supernatant 1:25
T2 construct: Made in-house in 293T cells; also called hErbB2(ECD)/cMyc-His; huErbB2 (ECD)/c-myc-His; not shown: c-myc/His tag of the pSecTag2Hygro vector
Description: […] […] Antigen-coated plates were washed three times, blocked with 1% non-fat skim milk/PBS for at least 30 minutes at room temperature, and then washed again three times. Each hybridoma line sample was titrated in 1% non-fat skim-milk/PBS 1:3 for 7 points starting from a 1:25 dilution. […] The next day, plates were washed three times and incubated with 50 μl of 400 ng/ml immunopure Goat anti-human IgG (Fc)-HRP (Pierce catalog #31416) for 1 hour at room temperature. Then, the plates were extensively washed and pat dried on paper towel to remove residual HRP in wells. HRP substrate TMB (enhanced K-blue TMB, Neogen catalog #308177) was added to each well and incubated for 30 min. The reaction was stopped by addition of 1N HCl. Optical density at 450 nm was read on a microplate reader (Titerteck Multiskan Ascent).

[8] = target: T2, human ErbB2 ECD-myc/His fusion protein; test: SPR, Biacore 2000 medium resolution; mAb captured on goat anti-human IgG, ErbB2(ECD)-cMyc/His injected; 1:1 fit
Description: The binding affinity of eight of the anti-ErbB2 antibodies was measured by medium resolution Biacore. All experiments were performed using a Biacore 2000 instrument.
First, 12 high-density goat α-human IgG antibody surfaces over three CM5 Biacore chips were prepared using routine amine coupling. […] Before each antigen injection cycle, each mAb was captured for six to nine seconds at a 100 μL/min flow rate. A 2-minute wash step followed each capture injection to stabilize each mAb baseline. […] All samples were randomly injected with several mAb capture/buffer inject cycles interspersed for double referencing. […] A flow rate of 100 μL/min. was used for all injection cycles. The data was fit to a 1:1 interaction model using CLAMP.

[9] = target: T2, human ErbB2 ECD-myc/His fusion protein; test: SPR, Biacore T100 high resolution; mAb captured on goat anti-human IgG, hHer-2(ECD)cMyc injected; 1:1 fit
Description: All experiments were performed using a Biacore T100 instrument. First, a high-density goat α human IgG antibody (Caltag H10500) surface was prepared over two CM5 Biacore chips using routine amine coupling. Each mAb was diluted in HBS-P running buffer containing 100 μg/ml Bovine serum albumin (BSA).
A capture level protocol was developed for all five mAbs. Before each antigen injection cycle, each mAb was captured for 15 to 30 seconds at a 20 μL/min flow rate. A 5-minute wash step followed each capture injection to stabilize each mAb baseline. […] The samples were prepared in the running buffer described above. All samples were randomly injected with several mAb capture/buffer inject cycles interspersed for double referencing. […] A flow rate of 50 μL/min. was used for all injection cycles.
All sensorgram data were fit to a 1:1 interaction model using CLAMP.

- 1 hr pTyr inhibition % (Heregulin-induced ErbB2 phosphorylation in MCF7 cells, hybridoma supernatant) [1]: 85%
- 24 hr pTyr inhibition % (Heregulin-induced ErbB2 phosphorylation in MCF7 cells, hybridoma supernatant) [1]: 96%
- EC50 (ng/ml) n1, inhibition of Heregulin-induced ErbB2 phosphorylation in MCF7 cells [2]: 4.2 ng/mL
- EC50 (ng/ml) n2, inhibition of Heregulin-induced ErbB2 phosphorylation in MCF7 cells [2]: 10.8 ng/mL
- % Inhibition @10 µg/ml, Heregulin-induced MCF7 cell proliferation [3]: 94%
- EC50 (ng/ml), inhibition of Heregulin-induced MCF7 cell proliferation [3]: 415 ng/mL
- N1 % Inhibition @40 µg/ml, BT474 cell proliferation [4]: 34%
- N1 EC50 (ng/ml), inhibition of BT474 cell proliferation [4]: 38.1 ng/mL
- N2 % Inhibition @40 µg/ml, BT474 cell proliferation [4]: 39%
- N2 EC50 (ng/ml), inhibition of BT474 cell proliferation [4]: 28.2 ng/mL
- % inhibition @36 µg/ml, SKBR3 cell proliferation [5]: 46%
- EC50 (ng/ml), inhibition of SKBR3 cell proliferation [5]: 26.3 ng/mL
- % Inhibition @10 µg/ml (n1), ErbB2 phosphorylation in BT474 cells at 48 hours [6]: 24%
- % Inhibition @10 µg/ml (n2), ErbB2 phosphorylation in BT474 cells at 48 hours [6]: 33%
- LA at 31 ng/ml (OD) [7]: 3.03 OD 450 nm
- Kd [8]: 3 nM
- koff [8]: 0.000302 s⁻¹
- kon [8]: 100000 M⁻¹ s⁻¹
B1: monoclonal antibody 1.18.1 (antibody, V domains shown)
VH: EVQLVESGGGLVKPGGSLRLSCAASGFTFSSYSMNWVRQAPGKGLEWVSSISSSSSYIYYADSVKGRFTISRDNAKNSLYLQMNSLSAEDTAVYSCARGGDGYNYYYFDYWGQGTLVTVSS
VL: DIVMTQSPGSLVVSLGERATITCKSSQSVFFRSNNKNCLAWYQQRPGQSPNLLIYWASTRESGVPDRFSGSGSGTDFTLTISSLQAEDVAVYYCQQYFGSPFTFGPGTKVDIK
notes: Fully human IgG (gamma/kappa) from a XenoMouse XM3B-3 hybridoma; constant regions not tied to it

- 1 hr pTyr inhibition % (Heregulin-induced ErbB2 phosphorylation in MCF7 cells, hybridoma supernatant) [1]: 82%
- 24 hr pTyr inhibition % (Heregulin-induced ErbB2 phosphorylation in MCF7 cells, hybridoma supernatant) [1]: 99%
- EC50 (ng/ml) n1, inhibition of Heregulin-induced ErbB2 phosphorylation in MCF7 cells [2]: 46.9 ng/mL
- EC50 (ng/ml) n2, inhibition of Heregulin-induced ErbB2 phosphorylation in MCF7 cells [2]: 26.3 ng/mL
- % Inhibition @10 µg/ml, Heregulin-induced MCF7 cell proliferation [3]: 89%
- EC50 (ng/ml), inhibition of Heregulin-induced MCF7 cell proliferation [3]: 479 ng/mL
- N1 % Inhibition @40 µg/ml, BT474 cell proliferation [4]: 29%
- N1 EC50 (ng/ml), inhibition of BT474 cell proliferation [4]: 156 ng/mL
- N2 % Inhibition @40 µg/ml, BT474 cell proliferation [4]: 40%
- N2 EC50 (ng/ml), inhibition of BT474 cell proliferation [4]: 42.3 ng/mL
- % inhibition @36 µg/ml, SKBR3 cell proliferation [5]: 41%
- EC50 (ng/ml), inhibition of SKBR3 cell proliferation [5]: 68.9 ng/mL
- % Inhibition @10 µg/ml (n1), ErbB2 phosphorylation in BT474 cells at 48 hours [6]: 37%
- % Inhibition @10 µg/ml (n2), ErbB2 phosphorylation in BT474 cells at 48 hours [6]: 26%
- LA at 31 ng/ml (OD) [7]: 2.57 OD 450 nm
- Kd [9]: 13.4 nM
- koff [9]: 0.000214 s⁻¹
- kon [9]: 16000 M⁻¹ s⁻¹
- Kd [8]: 2 nM
- koff [8]: 0.000236 s⁻¹
- kon [8]: 115000 M⁻¹ s⁻¹
B2: monoclonal antibody 1.39 (antibody, V domains shown)
VH: B1 VH with S87R, S95Y
VL: B1 VL with G9D, V12A, S49P, T59S, T78A, A86T
notes: Fully human IgG (gamma/kappa) from a XenoMouse XM3B-3 hybridoma; constant regions not tied to it; also called 1.39.1; 1.39.2
